From patent publication US20120077731A1 (Ablynx, published 2012) come the findings set out here.

The target of test [1] is T1, Human membrane IL-6R on cells (human, UniProt P08887 20-468).
T1 sequence (looked up): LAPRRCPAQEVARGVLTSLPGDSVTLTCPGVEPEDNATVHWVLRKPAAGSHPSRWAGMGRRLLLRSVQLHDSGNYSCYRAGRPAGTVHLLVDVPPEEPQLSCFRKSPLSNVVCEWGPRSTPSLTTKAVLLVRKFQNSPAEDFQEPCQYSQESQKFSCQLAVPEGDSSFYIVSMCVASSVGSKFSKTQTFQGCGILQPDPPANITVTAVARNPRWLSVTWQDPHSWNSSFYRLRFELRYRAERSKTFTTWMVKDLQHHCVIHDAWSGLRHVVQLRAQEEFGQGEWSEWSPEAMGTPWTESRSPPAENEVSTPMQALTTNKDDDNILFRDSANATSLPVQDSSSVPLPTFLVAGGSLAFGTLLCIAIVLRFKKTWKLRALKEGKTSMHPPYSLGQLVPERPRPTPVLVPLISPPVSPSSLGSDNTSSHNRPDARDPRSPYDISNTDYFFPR
As to the kind of experiment: cell-based or functional assay.

Test [2] concerns the target T2, Human plasma sIL-6R (human, UniProt P08887 20-355, limits assumed).
T2 construct: also called plasma-derived human IL-6R
T2 sequence (looked up): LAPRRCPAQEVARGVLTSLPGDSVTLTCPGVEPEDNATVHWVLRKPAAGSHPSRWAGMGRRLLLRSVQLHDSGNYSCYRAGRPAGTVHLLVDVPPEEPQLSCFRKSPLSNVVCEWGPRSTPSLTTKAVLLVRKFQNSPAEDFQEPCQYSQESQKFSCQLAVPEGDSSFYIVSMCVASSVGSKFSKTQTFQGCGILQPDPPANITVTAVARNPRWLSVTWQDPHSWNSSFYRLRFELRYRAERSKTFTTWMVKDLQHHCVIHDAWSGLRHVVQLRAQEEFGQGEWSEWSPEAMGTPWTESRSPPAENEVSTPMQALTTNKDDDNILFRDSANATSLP
Kind of test: plasma potency ELISA, human plasma. In general terms: An ELISA detects its analyte on a solid surface through an enzyme-linked reagent.

For test [3], the target named is T3, Human soluble IL-6R (human, UniProt P08887 20-358).
T3 construct: Soluble recombinant form; biotinylated in some assays; also called hIL-6R; human IL-6R
T3 sequence (looked up): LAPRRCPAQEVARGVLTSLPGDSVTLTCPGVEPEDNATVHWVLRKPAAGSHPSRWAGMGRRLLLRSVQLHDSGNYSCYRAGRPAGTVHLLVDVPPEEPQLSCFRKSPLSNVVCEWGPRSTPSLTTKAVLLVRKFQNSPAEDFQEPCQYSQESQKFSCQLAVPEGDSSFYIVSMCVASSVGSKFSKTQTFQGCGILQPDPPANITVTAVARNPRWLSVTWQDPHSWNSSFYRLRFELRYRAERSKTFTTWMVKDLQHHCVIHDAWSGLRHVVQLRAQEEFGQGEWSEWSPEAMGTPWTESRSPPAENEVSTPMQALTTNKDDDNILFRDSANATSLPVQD
Kind of test: Biacore T100, IL-6R captured by BN-12.

Test [4] concerns the target T4, Cyno IL-6R (cynomolgus monkey, UniProt A0A2K5WN54 60-396).
T4 construct: also called cynomolgus monkey IL-6R; recombinant cyno sIL-6R
T4 sequence: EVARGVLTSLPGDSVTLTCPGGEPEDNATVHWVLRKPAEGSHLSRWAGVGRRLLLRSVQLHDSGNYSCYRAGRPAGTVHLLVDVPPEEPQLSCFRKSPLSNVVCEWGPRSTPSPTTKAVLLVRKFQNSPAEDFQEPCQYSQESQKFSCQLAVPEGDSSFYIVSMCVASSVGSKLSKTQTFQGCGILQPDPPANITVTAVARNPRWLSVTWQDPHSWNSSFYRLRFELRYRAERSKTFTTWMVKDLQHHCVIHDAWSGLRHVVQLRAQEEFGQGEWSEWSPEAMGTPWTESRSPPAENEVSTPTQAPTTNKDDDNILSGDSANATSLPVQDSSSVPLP
Kind of test: Biacore T100, IL-6R captured by BN-12.

The target of test [5] is T5, Cyno plasma sIL-6R (cynomolgus monkey, UniProt A0A2K5WN54 60-396).
T5 construct: also called cynomolgus sIL-6R
T5 sequence: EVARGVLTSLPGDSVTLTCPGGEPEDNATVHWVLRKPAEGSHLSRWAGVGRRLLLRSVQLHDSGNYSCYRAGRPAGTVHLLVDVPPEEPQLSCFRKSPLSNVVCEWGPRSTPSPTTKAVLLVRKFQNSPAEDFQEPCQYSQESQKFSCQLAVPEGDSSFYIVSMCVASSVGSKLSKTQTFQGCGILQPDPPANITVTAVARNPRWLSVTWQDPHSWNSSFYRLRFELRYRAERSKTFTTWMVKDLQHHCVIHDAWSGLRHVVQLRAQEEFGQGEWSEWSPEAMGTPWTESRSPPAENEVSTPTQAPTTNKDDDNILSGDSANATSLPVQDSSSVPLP
Kind of test: plasma potency ELISA, human against cyno plasma.

For test [6], the target named is T3, Human soluble IL-6R. Kind of test: ELISA, IL6R20A11 on biotinylated human sIL-6R on neutravidin plate.
Test [7] deals with T2, Human plasma sIL-6R. Kind of test: plasma potency assay, human plasma, 42 nM IL6; blocked ligand IL-6.
Method: All 5 affinity matured Nanobodies and the sequence optimized Nanobody were also tested in a plasma potency assay. […] TMB was used as substrate.
Test [8] concerns the target T6, CNTF-R (UniProt P26992 23-346, limits assumed).
T6 sequence (looked up): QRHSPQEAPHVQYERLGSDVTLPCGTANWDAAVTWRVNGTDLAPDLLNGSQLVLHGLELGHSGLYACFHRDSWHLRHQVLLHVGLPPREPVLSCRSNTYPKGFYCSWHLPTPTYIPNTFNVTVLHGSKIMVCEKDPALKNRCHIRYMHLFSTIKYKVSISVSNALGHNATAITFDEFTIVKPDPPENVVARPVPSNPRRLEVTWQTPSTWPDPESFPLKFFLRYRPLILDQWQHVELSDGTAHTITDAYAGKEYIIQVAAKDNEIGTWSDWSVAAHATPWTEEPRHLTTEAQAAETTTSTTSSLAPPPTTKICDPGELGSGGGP
As to the kind of experiment: competitive binding ELISA: IL6R20A11 (0.05 nM) pre-incubated with a series of the receptor; free IL6R20A11 captured on sIL-6R and detected via anti-His.

B1: PMP20A11 (VHH)
VHH: EVQLVESGGGLVQPGGSLRLSCAASGSVFKINVMAWYRQAPGKGRELVAGIISGGSTSYADSVKGRFTISRDNAKNTLYLQMNSLRPEDTAVYYCAFITTESDYDLGRRYWGQGTLVTVSS
notes: also called IL6R20A11; IL6R300; not shown: c-myc and (His)6 tags
Regarding B1, the “IC50, TF1 assay” value in test [1] is 0.4 nM. In addition, in test [2], 0.198 nM corresponded to half-maximal inhibition (IC50). In addition, the kon in test [3] and in test [4] was 1e+06 M⁻¹ s⁻¹ throughout. The “Ratio (human/cyno) of IC50” value in test [5] was 1.69. For the same molecule, the response in test [6] was half-maximal at 0.35 nM (EC50). Besides, in test [7], the “IC50 (read off the curve)” value was around 0.4 nM. The binding result in test [8] is reported as “no binding (tested: 5 nM (log conc 0.7))”.
